Patent US20260015426A1 (23ANDME, published 2026)

B1: Parent Fab (Fab of h11C5_C59Y/A43S) (Fab, V domains shown)
VH: EVQLVESGGGLVQPGGSLRLSCAASGFTFSNYAMSWVRQAPGKGLEWVATVTEGGDYNYYLDDVKGRFTISRDNAKNSLYLQMNSLRAEDTAVYYCARDRWPYFFDYWGQGTLVTVSS
VL: DIQMTQSPSSLSASVGDRVTITCRASENIYSNLAWYQQKPGKSPKLLVYGAKNLADGVPSRFSGSGSGTDYTLTISSLQPEDFATYYCQHFWTTPRTFGGGTKVEIK
notes: Fab with 8xHis tag; also called parental Fab of h11C5_C59Y/A43S
B2: K10/H2 Fab (VL-A51Y, VH-R96D) (Fab, V domains shown)
VH: EVQLVESGGGLVQPGGSLRLSCAASGFTFSNYAMSWVRQAPGKGLEWVATVTEGGDYNYYLDDVKGRFTISRDNAKNSLYLQMNSLRAEDTAVYYCARDDWPYFFDYWGQGTLVTVSS
VL: DIQMTQSPSSLSASVGDRVTITCRASENIYSNLAWYQQKPGKSPKLLVYGYKNLADGVPSRFSGSGSGTDYTLTISSLQPEDFATYYCQHFWTTPRTFGGGTKVEIK
notes: Fab with 8xHis tag
B3: H9 Fab (VH G54V/R96A) (Fab, V domains shown)
VH: EVQLVESGGGLVQPGGSLRLSCAASGFTFSNYAMSWVRQAPGKGLEWVATVTEGVDYNYYLDDVKGRFTISRDNAKNSLYLQMNSLRAEDTAVYYCARDAWPYFFDYWGQGTLVTVSS
VL: DIQMTQSPSSLSASVGDRVTITCRASENIYSNLAWYQQKPGKSPKLLVYGAKNLADGVPSRFSGSGSGTDYTLTISSLQPEDFATYYCQHFWTTPRTFGGGTKVEIK
notes: Fab with 8xHis tag
B4: H11 Fab (VH W97F) (Fab, V domains shown)
VH: EVQLVESGGGLVQPGGSLRLSCAASGFTFSNYAMSWVRQAPGKGLEWVATVTEGGDYNYYLDDVKGRFTISRDNAKNSLYLQMNSLRAEDTAVYYCARDRFPYFFDYWGQGTLVTVSS
VL: DIQMTQSPSSLSASVGDRVTITCRASENIYSNLAWYQQKPGKSPKLLVYGAKNLADGVPSRFSGSGSGTDYTLTISSLQPEDFATYYCQHFWTTPRTFGGGTKVEIK
notes: Fab with 8xHis tag
B5: K13/H2 Fab (VL-A51Y/W92I, VH-R96D) (Fab, V domains shown)
VH: EVQLVESGGGLVQPGGSLRLSCAASGFTFSNYAMSWVRQAPGKGLEWVATVTEGGDYNYYLDDVKGRFTISRDNAKNSLYLQMNSLRAEDTAVYYCARDDWPYFFDYWGQGTLVTVSS
VL: DIQMTQSPSSLSASVGDRVTITCRASENIYSNLAWYQQKPGKSPKLLVYGYKNLADGVPSRFSGSGSGTDYTLTISSLQPEDFATYYCQHFITTPRTFGGGTKVEIK
notes: Fab with 8xHis tag
B6: K13/H12 Fab (VL-A51Y/W92I, VH-M34V) (Fab, V domains shown)
VH: EVQLVESGGGLVQPGGSLRLSCAASGFTFSNYAVSWVRQAPGKGLEWVATVTEGGDYNYYLDDVKGRFTISRDNAKNSLYLQMNSLRAEDTAVYYCARDRWPYFFDYWGQGTLVTVSS
VL: DIQMTQSPSSLSASVGDRVTITCRASENIYSNLAWYQQKPGKSPKLLVYGYKNLADGVPSRFSGSGSGTDYTLTISSLQPEDFATYYCQHFITTPRTFGGGTKVEIK
notes: Fab with 8xHis tag
B7: H8 Fab (VH F29S/E52aV/R96A) (Fab, V domains shown)
VH: EVQLVESGGGLVQPGGSLRLSCAASGFTSSNYAMSWVRQAPGKGLEWVATVTVGGDYNYYLDDVKGRFTISRDNAKNSLYLQMNSLRAEDTAVYYCARDAWPYFFDYWGQGTLVTVSS
VL: DIQMTQSPSSLSASVGDRVTITCRASENIYSNLAWYQQKPGKSPKLLVYGAKNLADGVPSRFSGSGSGTDYTLTISSLQPEDFATYYCQHFWTTPRTFGGGTKVEIK
notes: Fab with 8xHis tag
B8: K17 Fab (VL A51Y/W92K) (Fab, V domains shown)
VH: EVQLVESGGGLVQPGGSLRLSCAASGFTFSNYAMSWVRQAPGKGLEWVATVTEGGDYNYYLDDVKGRFTISRDNAKNSLYLQMNSLRAEDTAVYYCARDRWPYFFDYWGQGTLVTVSS
VL: DIQMTQSPSSLSASVGDRVTITCRASENIYSNLAWYQQKPGKSPKLLVYGYKNLADGVPSRFSGSGSGTDYTLTISSLQPEDFATYYCQHFKTTPRTFGGGTKVEIK
notes: Fab with 8xHis tag
B9: H7 Fab (VH F29E/N57G/R96A) (Fab, V domains shown)
VH: EVQLVESGGGLVQPGGSLRLSCAASGFTESNYAMSWVRQAPGKGLEWVATVTEGGDYGYYLDDVKGRFTISRDNAKNSLYLQMNSLRAEDTAVYYCARDAWPYFFDYWGQGTLVTVSS
VL: DIQMTQSPSSLSASVGDRVTITCRASENIYSNLAWYQQKPGKSPKLLVYGAKNLADGVPSRFSGSGSGTDYTLTISSLQPEDFATYYCQHFWTTPRTFGGGTKVEIK
notes: Fab with 8xHis tag
B10: H10 Fab (VH F29S/D55G/R96S) (Fab, V domains shown)
VH: EVQLVESGGGLVQPGGSLRLSCAASGFTSSNYAMSWVRQAPGKGLEWVATVTEGGGYNYYLDDVKGRFTISRDNAKNSLYLQMNSLRAEDTAVYYCARDSWPYFFDYWGQGTLVTVSS
VL: DIQMTQSPSSLSASVGDRVTITCRASENIYSNLAWYQQKPGKSPKLLVYGAKNLADGVPSRFSGSGSGTDYTLTISSLQPEDFATYYCQHFWTTPRTFGGGTKVEIK
notes: Fab with 8xHis tag
B11: K10/H3 Fab (VL-A51Y, VH-V51S) (Fab, V domains shown)
VH: EVQLVESGGGLVQPGGSLRLSCAASGFTFSNYAMSWVRQAPGKGLEWVATSTEGGDYNYYLDDVKGRFTISRDNAKNSLYLQMNSLRAEDTAVYYCARDRWPYFFDYWGQGTLVTVSS
VL: DIQMTQSPSSLSASVGDRVTITCRASENIYSNLAWYQQKPGKSPKLLVYGYKNLADGVPSRFSGSGSGTDYTLTISSLQPEDFATYYCQHFWTTPRTFGGGTKVEIK
notes: Fab with 8xHis tag
B12: H12 Fab (VH M34V) (Fab, V domains shown)
VH: EVQLVESGGGLVQPGGSLRLSCAASGFTFSNYAVSWVRQAPGKGLEWVATVTEGGDYNYYLDDVKGRFTISRDNAKNSLYLQMNSLRAEDTAVYYCARDRWPYFFDYWGQGTLVTVSS
VL: DIQMTQSPSSLSASVGDRVTITCRASENIYSNLAWYQQKPGKSPKLLVYGAKNLADGVPSRFSGSGSGTDYTLTISSLQPEDFATYYCQHFWTTPRTFGGGTKVEIK
notes: Fab with 8xHis tag

Experiments:
[1] = target: T1, hu-M-IL1RAP construct, positions S21-T367 (extracellular domain of the membrane form of human IL1RAP) (human, UniProt Q9NPH3 21-367); assay: SPR, Fab analyte, 25 C
T1 construct: Biotinylated when captured on the Biacore chip
T1 sequence: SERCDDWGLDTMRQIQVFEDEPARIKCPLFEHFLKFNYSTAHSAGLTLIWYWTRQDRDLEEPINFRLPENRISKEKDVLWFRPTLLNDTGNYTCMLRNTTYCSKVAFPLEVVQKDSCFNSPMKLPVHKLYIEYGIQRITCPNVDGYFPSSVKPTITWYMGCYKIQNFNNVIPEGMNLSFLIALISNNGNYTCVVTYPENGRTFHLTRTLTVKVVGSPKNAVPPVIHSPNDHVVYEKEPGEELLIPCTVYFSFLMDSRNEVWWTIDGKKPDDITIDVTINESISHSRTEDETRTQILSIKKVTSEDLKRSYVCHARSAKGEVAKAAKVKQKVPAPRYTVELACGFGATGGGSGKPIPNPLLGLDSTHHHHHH
Description: (§1) Surface plasmon resonance (SPR) analysis was used to determine binding affinity for hu-M-IL1RAP of the purified Fabs containing the selected single, double, and triple mutations in either the VL or VH regions using a BIACORE™ 8K instrument. […] For kinetics measurements, 5 nM biotinylated hu-M-IL1RAP was captured at 10 μL/min to achieve ˜50 response units in the second flow cell (FC2). FC1 was kept as a reference. […] The sensorgrams were recorded and subjected to reference and buffer subtraction before data analysis with the BIACORE® 8K Evaluation Software (version 1.1.1.7442). Association rates (kₒₙ) and dissociation rates (koff) were calculated using a simple one-to-one Langmuir binding model. The equilibrium dissociation constant (KD) was calculated as the ratio of koff/kₒₙ.

[2] = target: T1, hu-M-IL1RAP construct, positions …; assay: SPR, Fab analyte, 37 C
Description: as §1

[3] = target: T2, human IL1RAP (hu-IL1RAP) on human cells (human, UniProt Q9NPH3 21-570); assay: cell-based or functional assay
T2 sequence: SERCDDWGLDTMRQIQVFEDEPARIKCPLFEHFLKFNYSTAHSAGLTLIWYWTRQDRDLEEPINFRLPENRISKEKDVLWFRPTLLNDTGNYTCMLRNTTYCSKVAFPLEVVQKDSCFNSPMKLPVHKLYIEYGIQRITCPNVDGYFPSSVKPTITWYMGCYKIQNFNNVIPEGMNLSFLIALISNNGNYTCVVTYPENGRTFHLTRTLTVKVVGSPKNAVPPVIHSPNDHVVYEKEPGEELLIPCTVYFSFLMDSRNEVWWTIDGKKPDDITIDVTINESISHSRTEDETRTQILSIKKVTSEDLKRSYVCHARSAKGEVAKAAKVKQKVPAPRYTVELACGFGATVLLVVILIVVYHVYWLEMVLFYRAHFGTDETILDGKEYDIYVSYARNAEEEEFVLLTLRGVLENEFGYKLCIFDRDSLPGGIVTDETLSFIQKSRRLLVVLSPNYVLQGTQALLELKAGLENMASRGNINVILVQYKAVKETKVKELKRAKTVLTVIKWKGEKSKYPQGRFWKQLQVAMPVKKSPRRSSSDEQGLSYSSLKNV

[4] = target: T1, hu-M-IL1RAP construct, positions …; assay: SPR, Fab analyte, 37 C; remark: listed apart in the source
Description: as §1

| Binder | HEK-Blue, IL-1β, % inhibition at 100 nM (Fab) [3] [%] | HEK-Blue, IL-1β, IC50 (Fab) [3] [pM] | HEK-Blue, IL-33, % inhibition at 100 nM (Fab) [3] [%] | HEK-Blue, IL-33, IC50 (Fab) [3] [pM] | HEK-Blue, IL-36α, % inhibition at 100 nM (Fab) [3] [%] | HEK-Blue, IL-36α, IC50 (Fab) [3] [pM] | Kd [4] [pM] | koff [4] [s⁻¹] | kon [4] [M⁻¹ s⁻¹] | Kd [2] [pM] | koff [2] [s⁻¹] | kon [2] [M⁻¹ s⁻¹] | other results |
| --- | --- | --- | --- | --- | --- | --- | --- | --- | --- | --- | --- | --- | --- |
| B1 | 96 | 7450 | 77 | 26400 | 96 | 5090 | – | – | – | – | – | – | apparent Kd (pooled screen) [1]: 337 pM; apparent koff (pooled screen) [1]: 0.000468 s⁻¹; apparent kon (pooled screen) [1]: 1.39e+06 M⁻¹ s⁻¹; apparent Kd (pooled screen) [2]: 268 pM; apparent koff (pooled screen) [2]: 0.00163 s⁻¹; apparent kon (pooled screen) [2]: 6.08e+06 M⁻¹ s⁻¹ |
| B2 | 100 | 552 | 99 | 2170 | 100 | 481 | 20.1 | 0.000111 | 5.54e+06 | – | – | – | – |
| B3 | – | – | – | – | – | – | – | – | – | 81.1 | 0.000401 | 4.94e+06 | – |
| B4 | – | – | – | – | – | – | – | – | – | 460 | 0.00441 | 9.58e+06 | – |
| B5 | 100 | 539 | 98 | 2390 | 99 | 548 | 22.7 | 0.000115 | 5.08e+06 | – | – | – | – |
| B6 | – | – | – | – | – | – | 36.3 | 0.000178 | 4.9e+06 | – | – | – | – |
| B7 | – | – | – | – | – | – | – | – | – | 170 | 0.000899 | 5.27e+06 | – |
| B8 | 100 | 1590 | 96 | 5380 | 100 | 1270 | – | – | – | 44.1 | 0.000159 | 3.6e+06 | Kd [1]: 6.37 pM; koff [1]: 3.58e-05 s⁻¹; kon [1]: 5.63e+06 M⁻¹ s⁻¹ |
| B9 | – | – | – | – | – | – | – | – | – | 99.8 | 0.000511 | 5.13e+06 | – |
| B10 | – | – | – | – | – | – | – | – | – | 131 | 0.000702 | 5.34e+06 | – |
| B11 | 99 | 642 | 98 | 2430 | 100 | 582 | 24.2 | 0.000123 | 5.06e+06 | – | – | – | – |
| B12 | – | – | – | – | – | – | – | – | – | 305 | 0.00174 | 5.7e+06 | – |
